For orientation: Kd means the concentration at which binding is half-saturated.

We go through 2 molecules from article PMC11472053, “Structural basis of DNA recognition by BEN domain proteins reveals a role for oligomerization in unmethylated DNA selection by BANP” (Nucleic Acids Research, 2024).

One data set has as its target T1, NACC1 BEN R429A (human, UniProt Q96RE7 341-477, R429A).
T1 sequence: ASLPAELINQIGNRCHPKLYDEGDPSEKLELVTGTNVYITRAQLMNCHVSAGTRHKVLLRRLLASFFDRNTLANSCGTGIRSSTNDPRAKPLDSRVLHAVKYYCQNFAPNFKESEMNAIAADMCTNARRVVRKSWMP
Kind of data set: ITC; ITC: 20 mM Tris pH 7.5, 200 mM NaCl, 2 mM beta-mercaptoethanol, 20 C; EMSA: 20 mM Tris pH 7.0, 200 mM NaCl, 2 mM DTT, 4 C, 1.2% agarose in TAE. The following applies: protein: recombinant; tags: His-SUMO or His-MBP, cleaved; blunt, self-complementary. On the technique in general: Isothermal titration calorimetry measures the heat released or taken up as one component is titrated into another.

The target in another data set is T2, NACC1 BEN WT (human, UniProt Q96RE7 341-477).
T2 sequence: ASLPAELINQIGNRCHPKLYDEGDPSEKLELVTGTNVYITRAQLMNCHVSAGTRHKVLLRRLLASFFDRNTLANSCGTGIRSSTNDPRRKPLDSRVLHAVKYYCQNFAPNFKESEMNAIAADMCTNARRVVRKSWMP
The data set is described as above. The following applies: protein: recombinant; tags: His-SUMO or His-MBP, cleaved; blunt, self-complementary.

Another data set has as its target T3, NACC1 BEN R421A (human, UniProt Q96RE7 341-477, R421A).
T3 sequence: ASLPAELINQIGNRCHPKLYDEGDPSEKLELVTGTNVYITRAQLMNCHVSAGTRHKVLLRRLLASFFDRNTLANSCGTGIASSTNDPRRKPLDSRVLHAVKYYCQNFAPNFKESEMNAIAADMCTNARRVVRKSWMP
The data set is described as above. The following applies: protein: recombinant; tags: His-SUMO or His-MBP, cleaved; blunt, self-complementary.

Another data set has as its target T4, NACC1 BEN D462A (human, UniProt Q96RE7 341-477, D462A).
T4 sequence: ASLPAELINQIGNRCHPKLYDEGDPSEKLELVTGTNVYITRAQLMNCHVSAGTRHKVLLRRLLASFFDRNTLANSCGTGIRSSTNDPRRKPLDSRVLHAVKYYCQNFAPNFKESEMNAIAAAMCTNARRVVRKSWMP
Described as above. The following applies: protein: recombinant; tags: His-SUMO or His-MBP, cleaved; blunt, self-complementary.

For the next data set, the target named is T5, NACC1 BEN R472A (human, UniProt Q96RE7 341-477, R472A).
T5 sequence: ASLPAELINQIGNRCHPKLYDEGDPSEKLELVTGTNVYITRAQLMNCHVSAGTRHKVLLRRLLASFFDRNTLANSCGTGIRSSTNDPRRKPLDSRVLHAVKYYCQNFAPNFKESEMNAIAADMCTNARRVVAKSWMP
The data set is described as above. The following applies: protein: recombinant; tags: His-SUMO or His-MBP, cleaved; blunt, self-complementary.

The target of the next data set is T6, NACC1 BEN N466A (human, UniProt Q96RE7 341-477, N466A).
T6 sequence: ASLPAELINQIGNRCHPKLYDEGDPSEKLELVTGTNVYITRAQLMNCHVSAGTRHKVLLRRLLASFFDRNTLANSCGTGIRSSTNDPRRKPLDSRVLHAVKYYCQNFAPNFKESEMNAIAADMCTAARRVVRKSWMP
The data set is described as above. The following applies: protein: recombinant; tags: His-SUMO or His-MBP, cleaved; blunt, self-complementary.

The next data set deals with T7, NACC1 BEN R469A (human, UniProt Q96RE7 341-477, R469A).
T7 sequence: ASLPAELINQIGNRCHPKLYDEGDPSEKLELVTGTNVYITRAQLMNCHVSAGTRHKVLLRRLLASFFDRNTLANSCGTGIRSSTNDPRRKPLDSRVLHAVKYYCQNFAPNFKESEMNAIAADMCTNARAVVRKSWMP
Kind of data set: ITC; Kd N.A.; almost completely abolished; ITC: 20 mM Tris pH 7.5, 200 mM NaCl, 2 mM beta-mercaptoethanol, 20 C; EMSA: 20 mM Tris pH 7.0, 200 mM NaCl, 2 mM DTT, 4 C, 1.2% agarose in TAE. The following applies: protein: recombinant; tags: His-SUMO or His-MBP, cleaved; blunt, self-complementary.

The target of the next data set is T8, BANP BEN WT (human, UniProt Q8N9N5 205-325).
T8 sequence: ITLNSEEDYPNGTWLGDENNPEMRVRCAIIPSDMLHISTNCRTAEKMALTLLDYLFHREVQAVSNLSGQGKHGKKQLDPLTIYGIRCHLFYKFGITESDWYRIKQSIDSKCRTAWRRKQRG
Kind of data set: ITC; ITC: 20 mM Tris pH 7.5, 200 mM NaCl, 2 mM beta-mercaptoethanol, 20 C; EMSA: 20 mM Tris pH 7.0, 200 mM NaCl, 2 mM DTT, 4 C, 1.2% agarose in TAE. The following applies: protein: recombinant; tags: His-SUMO or His-MBP, cleaved; chain copies: 2; blunt, self-complementary.

For a further data set, the target named is T9, BANP CC-BEN (ΔDBD) (human, UniProt Q8N9N5 1-360).
T9 sequence: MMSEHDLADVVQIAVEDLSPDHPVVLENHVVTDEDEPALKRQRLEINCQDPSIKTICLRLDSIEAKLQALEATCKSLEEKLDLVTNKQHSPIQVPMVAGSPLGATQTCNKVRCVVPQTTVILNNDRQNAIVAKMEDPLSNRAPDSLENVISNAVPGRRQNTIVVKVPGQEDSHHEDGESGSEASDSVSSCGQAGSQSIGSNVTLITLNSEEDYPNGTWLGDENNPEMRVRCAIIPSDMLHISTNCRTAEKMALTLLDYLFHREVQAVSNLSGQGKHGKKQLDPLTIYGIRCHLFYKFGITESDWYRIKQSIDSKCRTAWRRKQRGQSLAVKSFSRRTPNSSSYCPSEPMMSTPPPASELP
The data set is described as above. The following applies: protein: recombinant; tags: His-SUMO or His-MBP, cleaved; blunt, self-complementary.

The target in a further data set is T10, BANP BEN-DBD (human, UniProt Q8N9N5 205-519).
T10 sequence: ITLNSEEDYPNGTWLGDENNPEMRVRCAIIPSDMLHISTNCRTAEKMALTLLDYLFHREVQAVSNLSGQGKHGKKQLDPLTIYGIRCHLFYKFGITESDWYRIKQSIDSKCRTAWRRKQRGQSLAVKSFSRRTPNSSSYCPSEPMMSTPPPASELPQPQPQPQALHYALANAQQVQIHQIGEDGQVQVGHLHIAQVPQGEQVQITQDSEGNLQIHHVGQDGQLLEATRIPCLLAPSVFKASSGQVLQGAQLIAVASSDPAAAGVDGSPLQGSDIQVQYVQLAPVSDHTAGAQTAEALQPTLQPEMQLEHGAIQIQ
The description is as above. The following applies: protein: recombinant; tags: His-SUMO or His-MBP, cleaved; blunt, self-complementary.

The target in a further data set is T11, BANP full-length WT (human, UniProt Q8N9N5 1-519).
T11 sequence: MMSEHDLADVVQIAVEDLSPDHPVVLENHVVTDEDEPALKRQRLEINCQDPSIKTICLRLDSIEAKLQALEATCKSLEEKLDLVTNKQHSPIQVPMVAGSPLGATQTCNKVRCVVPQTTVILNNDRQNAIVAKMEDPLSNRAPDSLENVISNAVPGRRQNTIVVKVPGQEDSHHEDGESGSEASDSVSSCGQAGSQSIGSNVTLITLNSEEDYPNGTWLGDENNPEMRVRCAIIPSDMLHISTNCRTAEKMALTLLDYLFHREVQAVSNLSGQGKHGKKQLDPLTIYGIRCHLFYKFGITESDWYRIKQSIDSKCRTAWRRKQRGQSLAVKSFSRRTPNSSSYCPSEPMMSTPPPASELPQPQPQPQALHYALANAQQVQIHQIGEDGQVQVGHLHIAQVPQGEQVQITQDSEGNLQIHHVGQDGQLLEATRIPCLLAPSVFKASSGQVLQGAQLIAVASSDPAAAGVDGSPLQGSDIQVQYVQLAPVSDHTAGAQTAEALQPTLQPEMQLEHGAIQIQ
Described as above. The following applies: protein: recombinant; tags: His-SUMO or His-MBP, cleaved; chain copies: 4; blunt, self-complementary.

The target in another data set is T12, BANP ΔCC (human, UniProt Q8N9N5 90-519).
T12 sequence: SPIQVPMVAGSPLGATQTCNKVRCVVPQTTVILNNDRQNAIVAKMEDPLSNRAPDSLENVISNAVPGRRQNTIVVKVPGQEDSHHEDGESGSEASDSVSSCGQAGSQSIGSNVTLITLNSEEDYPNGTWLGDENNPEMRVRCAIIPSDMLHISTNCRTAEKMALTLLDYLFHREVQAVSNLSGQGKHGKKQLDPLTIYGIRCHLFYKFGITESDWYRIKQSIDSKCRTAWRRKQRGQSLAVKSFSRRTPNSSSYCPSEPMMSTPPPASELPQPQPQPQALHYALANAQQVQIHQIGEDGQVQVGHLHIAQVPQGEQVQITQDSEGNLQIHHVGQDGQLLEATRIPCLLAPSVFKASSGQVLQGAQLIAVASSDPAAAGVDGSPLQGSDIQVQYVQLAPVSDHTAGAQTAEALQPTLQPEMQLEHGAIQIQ
The description is as above. The following applies: protein: recombinant; tags: His-SUMO or His-MBP, cleaved; blunt, self-complementary.

The target in a further data set is T13, GST-BANP BEN (human, UniProt Q8N9N5 205-325).
T13 sequence: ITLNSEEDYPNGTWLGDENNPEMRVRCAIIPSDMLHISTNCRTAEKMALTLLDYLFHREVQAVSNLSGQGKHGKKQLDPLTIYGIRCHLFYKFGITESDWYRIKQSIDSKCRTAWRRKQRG
Described as above. The following applies: protein: recombinant; tags: N-terminal GST fusion; chain copies: 2; blunt, self-complementary.

B1: 12-CATG (dsDNA)
DNA 1: ATTACATGTAAT
DNA 2: ATTACATGTAAT
In the case of B1, the Kd worked out at 34.7 ± 4.5 µM with NACC1 BEN R429A; 1300 ± 200 nM with NACC1 BEN WT; 4.6 ± 0.6 µM with NACC1 BEN R421A; 4.6 ± 0.4 µM in the data set with NACC1 BEN D462A; 8.6 ± 1.4 µM with NACC1 BEN R472A; 2900 ± 400 nM in the data set with NACC1 BEN N466A. In addition, in the data set with NACC1 BEN R469A, the binding result is given as “no binding”.

B2: 12-mCGCG (dsDNA)
DNA 1: ATCTCGCGAGAT
DNA 2: ATCTCGCGAGAT
modifications: 5-methyl-C at position 5 of each strand (palindrome; called hemi-methylated, one CpG methylated)
As to B2, the Kd with BANP BEN WT was 5.6 ± 0.7 µM; in the data set with BANP CC-BEN (ΔDBD) it was 4.3 ± 0.8 µM; in the data set with BANP BEN-DBD it was 8.3 ± 0.6 µM; with BANP full-length WT, 4.9 ± 1.4 µM; in the data set with BANP ΔCC, 5.6 ± 0.9 µM; in the data set with GST-BANP BEN, 3.5 ± 0.6 µM.
